Data from paper PMC2645338.

Columns and labels:
[1] = molecular target: mitochondrial 28S small ribosomal subunit (bovine); assay: Microcon-100 centrifugation with dot blot immunodetection
[2] = molecular target: mitochondrial 28S small ribosomal subunit (bovine); assay: co-sedimentation
[3] = molecular target: mitochondrial 28S small ribosomal subunit (bovine); assay: dot blot of epitope exposure
[4] = molecular target: C-terminal domain of IF3mt with the linker, His6-tagged (human); assay: SPR

| Kd [1] [nM] | Substance | other results |
| --- | --- | --- |
| 232 | untagged N-domain of IF3mt with the linker (His-tag removed with TEV protease) (domain or fragment) |  |
|  | mitochondrial initiation factor 3, mature full-length form, His-tagged (from UniProt Q9H2K0 32-278) (natural protein) | Kd [2]: 35 nM; quenching of the antigenic response on binding [3]: 80% |
| 95 | C-terminal domain of IF3mt without the linker, His6-tagged (domain or fragment) |  |
| 40 | untagged IF3mt (mature full-length form, His-tag removed with TEV protease) (from UniProt Q9H2K0 32-278) (natural protein) |  |
|  | mitochondrial 28S small ribosomal subunit (complex) | Kd [4]: 44 nM; koff [4]: 0.0092 s⁻¹; kon [4]: 210000 M⁻¹ s⁻¹ |
| 70 | untagged C-domain of IF3mt with the linker (His-tag removed with TEV protease) (domain or fragment) |  |
| 240 | N-terminal domain of IF3mt with the linker, His6-tagged (domain or fragment) | Kd [2]: 277 nM |
| 390 | N-terminal domain of IF3mt without the linker, His6-tagged (domain or fragment) |  |
| 60 | C-terminal domain of IF3mt with the linker, His6-tagged (domain or fragment) |  |
